{"source": "patent US20240261333A1", "about": "“NOVEL TARGETS FOR ENHANCING ANTI-TUMOR IMMUNITY” (THE BROAD INSTITUTE, INC., priority 2021, published 2024)", "key": {"TNKS1BP1": {"molecular_target": "TNKS1BP1 (UniProt Q9C0C2)", "assay": "co-IP, IgG control, C-FLAG B3GNT2 cell lysate, mass spectrometry"}, "LIMA1": {"molecular_target": "LIMA1 (UniProt Q9UHB6)", "sequence (Q9UHB6 other isoform, or with tags, fused parts or gaps limits assumed)": "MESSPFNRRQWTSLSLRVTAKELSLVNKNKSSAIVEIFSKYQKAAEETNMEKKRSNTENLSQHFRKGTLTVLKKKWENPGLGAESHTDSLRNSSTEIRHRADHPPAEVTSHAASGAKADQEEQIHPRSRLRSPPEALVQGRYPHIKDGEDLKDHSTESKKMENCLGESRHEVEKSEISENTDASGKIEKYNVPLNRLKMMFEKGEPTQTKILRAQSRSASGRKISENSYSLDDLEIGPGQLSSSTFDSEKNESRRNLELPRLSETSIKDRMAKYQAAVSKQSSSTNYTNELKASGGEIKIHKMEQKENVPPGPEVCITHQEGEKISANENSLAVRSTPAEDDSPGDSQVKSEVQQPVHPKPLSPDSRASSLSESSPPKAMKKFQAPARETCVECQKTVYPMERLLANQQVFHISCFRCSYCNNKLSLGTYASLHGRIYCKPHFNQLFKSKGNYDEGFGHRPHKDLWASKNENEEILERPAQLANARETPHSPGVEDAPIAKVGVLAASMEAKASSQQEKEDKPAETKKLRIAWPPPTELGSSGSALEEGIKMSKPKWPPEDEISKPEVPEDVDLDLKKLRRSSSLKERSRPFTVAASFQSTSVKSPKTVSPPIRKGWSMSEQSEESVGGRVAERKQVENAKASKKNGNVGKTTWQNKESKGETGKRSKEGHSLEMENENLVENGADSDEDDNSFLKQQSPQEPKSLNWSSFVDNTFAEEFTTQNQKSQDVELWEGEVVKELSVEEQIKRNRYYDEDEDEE", "assay": "co-IP, IgG control, C-FLAG B3GNT2 cell lysate, mass spectrometry"}, "DDX20": {"molecular_target": "DDX20 (UniProt Q9UHI6)", "assay": "co-IP, IgG control, C-FLAG B3GNT2 cell lysate, mass spectrometry"}, "RPL19": {"molecular_target": "RPL19 (UniProt P84098)", "assay": "co-IP, IgG control, C-FLAG B3GNT2 cell lysate, mass spectrometry"}, "MTDH": {"molecular_target": "MTDH (UniProt Q86UE4)", "assay": "co-IP, IgG control, C-FLAG B3GNT2 cell lysate, mass spectrometry"}, "HIST1H1E": {"molecular_target": "HIST1H1E (UniProt P10412)", "sequence (P10412 2-219 limits assumed)": "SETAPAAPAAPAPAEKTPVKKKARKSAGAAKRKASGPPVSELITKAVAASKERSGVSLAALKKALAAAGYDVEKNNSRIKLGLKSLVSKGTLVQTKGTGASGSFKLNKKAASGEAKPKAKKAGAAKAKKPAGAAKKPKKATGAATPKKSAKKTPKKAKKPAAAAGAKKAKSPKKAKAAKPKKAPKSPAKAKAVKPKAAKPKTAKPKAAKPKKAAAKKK", "assay": "co-IP, IgG control, C-FLAG B3GNT2 cell lysate, mass spectrometry"}, "POF1B": {"molecular_target": "POF1B (UniProt Q8WVV4)", "assay": "co-IP, IgG control, C-FLAG B3GNT2 cell lysate, mass spectrometry"}, "ARG1": {"molecular_target": "ARG1 (UniProt P05089)", "assay": "co-IP, IgG control, C-FLAG B3GNT2 cell lysate, mass spectrometry"}, "SRSF1": {"molecular_target": "SRSF1 (UniProt Q07955)", "assay": "co-IP, IgG control, C-FLAG B3GNT2 cell lysate, mass spectrometry"}, "HNRNPU": {"molecular_target": "HNRNPU (UniProt Q00839)", "assay": "co-IP, IgG control, C-FLAG B3GNT2 cell lysate, mass spectrometry"}, "RPS16": {"molecular_target": "RPS16 (UniProt P62249)", "assay": "co-IP, IgG control, C-FLAG B3GNT2 cell lysate, mass spectrometry"}, "NCCRP1": {"molecular_target": "NCCRP1 (UniProt Q6ZVX7)", "assay": "co-IP, IgG control, C-FLAG B3GNT2 cell lysate, mass spectrometry"}, "EIF4G1": {"molecular_target": "EIF4G1 (UniProt Q04637)", "assay": "co-IP, IgG control, C-FLAG B3GNT2 cell lysate, mass spectrometry"}, "RPL35": {"molecular_target": "RPL35 (UniProt P42766)", "assay": "co-IP, IgG control, C-FLAG B3GNT2 cell lysate, mass spectrometry"}, "RPS19": {"molecular_target": "RPS19 (UniProt P39019)", "assay": "co-IP, IgG control, C-FLAG B3GNT2 cell lysate, mass spectrometry"}, "SSRP1": {"molecular_target": "SSRP1 (UniProt Q08945)", "assay": "co-IP, IgG control, C-FLAG B3GNT2 cell lysate, mass spectrometry"}, "PBXIP1": {"molecular_target": "PBXIP1 (UniProt Q96AQ6)", "assay": "co-IP, IgG control, C-FLAG B3GNT2 cell lysate, mass spectrometry"}, "DNAJA2": {"molecular_target": "DNAJA2 (UniProt O60884)", "sequence (O60884 1-409 limits assumed)": "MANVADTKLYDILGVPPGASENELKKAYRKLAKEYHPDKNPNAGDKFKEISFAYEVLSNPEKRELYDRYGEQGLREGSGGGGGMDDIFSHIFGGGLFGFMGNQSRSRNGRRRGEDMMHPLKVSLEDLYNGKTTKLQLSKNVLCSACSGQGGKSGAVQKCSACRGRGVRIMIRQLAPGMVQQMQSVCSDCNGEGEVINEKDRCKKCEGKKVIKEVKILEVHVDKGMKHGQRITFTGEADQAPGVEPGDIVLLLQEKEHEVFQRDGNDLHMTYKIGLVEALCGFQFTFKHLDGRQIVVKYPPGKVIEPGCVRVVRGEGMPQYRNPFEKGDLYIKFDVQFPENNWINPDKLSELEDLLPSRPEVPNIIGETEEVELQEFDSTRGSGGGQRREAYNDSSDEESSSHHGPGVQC", "assay": "co-IP, IgG control, C-FLAG B3GNT2 cell lysate, mass spectrometry"}, "RPL22": {"molecular_target": "RPL22 (UniProt P35268)", "assay": "co-IP, IgG control, C-FLAG B3GNT2 cell lysate, mass spectrometry"}, "RPL5": {"molecular_target": "RPL5 (UniProt P46777)", "assay": "co-IP, IgG control, C-FLAG B3GNT2 cell lysate, mass spectrometry"}, "MTCH2": {"molecular_target": "MTCH2 (UniProt Q9Y6C9)", "assay": "co-IP, IgG control, C-FLAG B3GNT2 cell lysate, mass spectrometry"}, "TXN": {"molecular_target": "TXN (UniProt P10599)", "assay": "co-IP, IgG control, C-FLAG B3GNT2 cell lysate, mass spectrometry"}, "RPS2": {"molecular_target": "RPS2 (UniProt P15880)", "assay": "co-IP, IgG control, C-FLAG B3GNT2 cell lysate, mass spectrometry"}, "HSPB1": {"molecular_target": "HSPB1 (UniProt P04792)", "sequence (P04792 whole entry)": "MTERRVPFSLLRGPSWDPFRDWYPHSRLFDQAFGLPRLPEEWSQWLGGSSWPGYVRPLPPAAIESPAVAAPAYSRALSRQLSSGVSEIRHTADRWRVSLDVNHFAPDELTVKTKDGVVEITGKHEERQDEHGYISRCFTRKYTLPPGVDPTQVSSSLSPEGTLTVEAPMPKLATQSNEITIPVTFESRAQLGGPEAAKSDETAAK", "assay": "co-IP, IgG control, C-FLAG B3GNT2 cell lysate, mass spectrometry"}, "PSMA7": {"molecular_target": "PSMA7 (UniProt O14818)", "sequence (O14818 whole entry)": "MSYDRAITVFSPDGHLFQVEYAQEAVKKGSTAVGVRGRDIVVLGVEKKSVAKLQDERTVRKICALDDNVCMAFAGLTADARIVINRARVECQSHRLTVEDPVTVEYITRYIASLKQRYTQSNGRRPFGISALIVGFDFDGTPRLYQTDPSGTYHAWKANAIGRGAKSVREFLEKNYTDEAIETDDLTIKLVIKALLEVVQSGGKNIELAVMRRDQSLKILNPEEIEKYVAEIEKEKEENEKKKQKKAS", "assay": "co-IP, IgG control, C-FLAG B3GNT2 cell lysate, mass spectrometry"}, "CDSN": {"molecular_target": "CDSN (UniProt Q15517)", "assay": "co-IP, IgG control, C-FLAG B3GNT2 cell lysate, mass spectrometry"}, "RPL27A": {"molecular_target": "RPL27A (UniProt P46776)", "assay": "co-IP, IgG control, C-FLAG B3GNT2 cell lysate, mass spectrometry"}, "ZRANB2 (human)": {"molecular_target": "ZRANB2 (human) (UniProt O95218)", "sequence (O95218 other isoform, or with tags, fused parts or gaps limits assumed)": "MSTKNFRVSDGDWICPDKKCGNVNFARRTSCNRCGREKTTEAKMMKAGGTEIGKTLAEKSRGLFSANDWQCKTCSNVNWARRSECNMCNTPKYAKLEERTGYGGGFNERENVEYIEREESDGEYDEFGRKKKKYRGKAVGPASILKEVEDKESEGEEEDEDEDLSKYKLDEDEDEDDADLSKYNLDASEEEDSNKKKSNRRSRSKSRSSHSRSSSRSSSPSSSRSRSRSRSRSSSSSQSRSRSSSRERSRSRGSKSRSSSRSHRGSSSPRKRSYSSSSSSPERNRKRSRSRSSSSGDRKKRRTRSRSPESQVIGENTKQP", "assay": "IgG control IP from lysate of C-FLAG B3GNT2 cells, mass spectrometry"}, "KTN1 (human)": {"molecular_target": "KTN1 (human) (UniProt Q86UP2)", "assay": "IgG control IP from lysate of C-FLAG B3GNT2 cells, mass spectrometry"}, "UBTF (human)": {"molecular_target": "UBTF (human) (UniProt P17480)", "sequence (P17480 other isoform, or with tags, fused parts or gaps limits assumed)": "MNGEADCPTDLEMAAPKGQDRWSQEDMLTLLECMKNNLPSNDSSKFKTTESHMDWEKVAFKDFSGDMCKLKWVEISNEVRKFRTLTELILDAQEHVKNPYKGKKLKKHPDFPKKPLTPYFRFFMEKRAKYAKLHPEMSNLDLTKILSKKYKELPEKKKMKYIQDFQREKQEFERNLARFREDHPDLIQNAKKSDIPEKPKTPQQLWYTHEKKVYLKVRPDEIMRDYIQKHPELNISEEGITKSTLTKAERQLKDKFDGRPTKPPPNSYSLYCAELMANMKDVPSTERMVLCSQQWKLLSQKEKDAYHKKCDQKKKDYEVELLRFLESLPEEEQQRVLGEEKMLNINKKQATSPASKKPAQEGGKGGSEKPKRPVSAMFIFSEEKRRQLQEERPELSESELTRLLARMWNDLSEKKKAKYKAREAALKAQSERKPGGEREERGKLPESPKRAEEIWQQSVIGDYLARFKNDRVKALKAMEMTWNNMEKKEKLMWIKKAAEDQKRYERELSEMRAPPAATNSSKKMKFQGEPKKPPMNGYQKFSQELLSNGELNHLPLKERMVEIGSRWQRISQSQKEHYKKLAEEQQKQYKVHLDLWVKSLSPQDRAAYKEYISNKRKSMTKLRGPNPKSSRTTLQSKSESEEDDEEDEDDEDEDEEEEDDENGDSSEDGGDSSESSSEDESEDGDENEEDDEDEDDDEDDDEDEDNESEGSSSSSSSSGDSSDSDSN", "assay": "IgG control IP from lysate of C-FLAG B3GNT2 cells, mass spectrometry"}, "PSMA5 (human)": {"molecular_target": "PSMA5 (human) (UniProt P28066)", "assay": "IgG control IP from lysate of C-FLAG B3GNT2 cells, mass spectrometry"}, "HDGFL2 (human)": {"molecular_target": "HDGFL2 (human) (UniProt Q7Z4V5)", "sequence (Q7Z4V5 whole entry)": "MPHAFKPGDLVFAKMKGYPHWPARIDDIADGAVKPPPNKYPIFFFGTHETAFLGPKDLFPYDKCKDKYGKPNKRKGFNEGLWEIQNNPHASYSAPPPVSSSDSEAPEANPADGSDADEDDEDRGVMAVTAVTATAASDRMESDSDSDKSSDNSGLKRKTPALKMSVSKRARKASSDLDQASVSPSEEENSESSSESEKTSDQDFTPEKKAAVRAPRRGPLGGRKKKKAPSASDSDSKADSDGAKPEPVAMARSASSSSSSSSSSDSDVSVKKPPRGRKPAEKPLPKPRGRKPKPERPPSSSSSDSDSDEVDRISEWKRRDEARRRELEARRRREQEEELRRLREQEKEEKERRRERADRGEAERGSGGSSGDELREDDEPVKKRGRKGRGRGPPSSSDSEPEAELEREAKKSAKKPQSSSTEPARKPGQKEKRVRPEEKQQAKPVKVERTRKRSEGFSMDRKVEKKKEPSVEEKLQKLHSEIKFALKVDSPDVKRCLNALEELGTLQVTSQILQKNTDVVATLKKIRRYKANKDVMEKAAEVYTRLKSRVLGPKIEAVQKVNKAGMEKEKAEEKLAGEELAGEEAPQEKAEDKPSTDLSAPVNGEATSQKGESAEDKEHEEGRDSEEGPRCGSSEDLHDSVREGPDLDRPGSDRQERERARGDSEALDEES", "assay": "IgG control IP from lysate of C-FLAG B3GNT2 cells, mass spectrometry"}, "PSMC2 (human)": {"molecular_target": "PSMC2 (human) (UniProt P35998)", "assay": "IgG control IP from lysate of C-FLAG B3GNT2 cells, mass spectrometry"}, "PDIA4 (human)": {"molecular_target": "PDIA4 (human) (UniProt P13667)", "sequence (P13667 21-645 limits assumed)": "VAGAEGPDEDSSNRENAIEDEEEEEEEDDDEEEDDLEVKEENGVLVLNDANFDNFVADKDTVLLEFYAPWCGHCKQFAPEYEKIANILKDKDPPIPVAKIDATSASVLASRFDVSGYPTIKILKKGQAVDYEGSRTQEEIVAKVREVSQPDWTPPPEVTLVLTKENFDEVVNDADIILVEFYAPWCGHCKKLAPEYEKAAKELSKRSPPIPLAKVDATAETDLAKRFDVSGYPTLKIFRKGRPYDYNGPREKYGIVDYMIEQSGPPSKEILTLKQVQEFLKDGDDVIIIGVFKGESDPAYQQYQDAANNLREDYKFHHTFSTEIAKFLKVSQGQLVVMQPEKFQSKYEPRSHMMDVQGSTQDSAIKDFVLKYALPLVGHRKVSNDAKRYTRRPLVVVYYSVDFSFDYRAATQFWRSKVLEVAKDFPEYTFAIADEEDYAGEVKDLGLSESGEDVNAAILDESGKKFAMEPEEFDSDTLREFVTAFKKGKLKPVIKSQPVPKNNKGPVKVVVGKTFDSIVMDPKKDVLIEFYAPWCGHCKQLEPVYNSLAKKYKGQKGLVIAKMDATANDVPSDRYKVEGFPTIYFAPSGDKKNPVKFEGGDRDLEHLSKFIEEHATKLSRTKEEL", "assay": "IgG control IP from lysate of C-FLAG B3GNT2 cells, mass spectrometry"}, "FBXO6 (human)": {"molecular_target": "FBXO6 (human) (UniProt Q9NRD1)", "sequence (Q9NRD1 whole entry)": "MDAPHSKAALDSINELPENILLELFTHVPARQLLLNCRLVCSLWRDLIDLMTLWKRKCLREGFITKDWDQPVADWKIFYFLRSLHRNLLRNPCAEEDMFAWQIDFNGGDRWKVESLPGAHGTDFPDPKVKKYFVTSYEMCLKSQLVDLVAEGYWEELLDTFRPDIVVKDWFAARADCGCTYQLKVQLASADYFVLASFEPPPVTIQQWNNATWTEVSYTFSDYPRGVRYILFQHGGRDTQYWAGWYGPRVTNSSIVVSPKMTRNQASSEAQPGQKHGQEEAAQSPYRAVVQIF", "assay": "IgG control IP from lysate of C-FLAG B3GNT2 cells, mass spectrometry"}, "ACSL3 (human)": {"molecular_target": "ACSL3 (human) (UniProt O95573)", "assay": "IgG control IP from lysate of C-FLAG B3GNT2 cells, mass spectrometry"}, "NTPCR (human)": {"molecular_target": "NTPCR (human) (UniProt Q9BSD7)", "sequence (Q9BSD7 2-190 limits assumed)": "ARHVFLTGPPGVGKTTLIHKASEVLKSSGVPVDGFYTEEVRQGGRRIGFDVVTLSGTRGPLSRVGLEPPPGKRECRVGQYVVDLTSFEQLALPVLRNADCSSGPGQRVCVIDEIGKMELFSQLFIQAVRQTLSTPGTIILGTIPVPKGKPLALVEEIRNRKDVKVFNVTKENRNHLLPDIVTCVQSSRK", "assay": "IgG control IP from lysate of C-FLAG B3GNT2 cells, mass spectrometry"}, "ERP29 (human)": {"molecular_target": "ERP29 (human) (UniProt P30040)", "assay": "IgG control IP from lysate of C-FLAG B3GNT2 cells, mass spectrometry"}, "PXN (human)": {"molecular_target": "PXN (human) (UniProt P49023)", "assay": "IgG control IP from lysate of C-FLAG B3GNT2 cells, mass spectrometry"}, "PGAM5 (human)": {"molecular_target": "PGAM5 (human) (UniProt Q96HS1)", "assay": "IgG control IP from lysate of C-FLAG B3GNT2 cells, mass spectrometry"}}, "data": [{"substance": "IgG control (Millipore Sigma 12-371) (antibody)", "values": [{"measurement": "co-IP mass spectrometry count", "setting": "TNKS1BP1", "value": 2}, {"measurement": "co-IP mass spectrometry count", "setting": "LIMA1", "value": 0}, {"measurement": "co-IP mass spectrometry count", "setting": "DDX20", "value": 0}, {"measurement": "co-IP mass spectrometry count", "setting": "RPL19", "value": 2}, {"measurement": "co-IP mass spectrometry count", "setting": "MTDH", "value": 0}, {"measurement": "co-IP mass spectrometry count", "setting": "HIST1H1E", "value": 0}, {"measurement": "co-IP mass spectrometry count", "setting": "POF1B", "value": 0}, {"measurement": "co-IP mass spectrometry count", "setting": "ARG1", "value": 4}, {"measurement": "co-IP mass spectrometry count", "setting": "SRSF1", "value": 3}, {"measurement": "co-IP mass spectrometry count", "setting": "HNRNPU", "value": 0}, {"measurement": "co-IP mass spectrometry count", "setting": "RPS16", "value": 8}, {"measurement": "co-IP mass spectrometry count", "setting": "NCCRP1", "value": 0}, {"measurement": "co-IP mass spectrometry count", "setting": "EIF4G1", "value": 2}, {"measurement": "co-IP mass spectrometry count", "setting": "RPL35", "value": 0}, {"measurement": "co-IP mass spectrometry count", "setting": "RPS19", "value": 3}, {"measurement": "co-IP mass spectrometry count", "setting": "SSRP1", "value": 0}, {"measurement": "co-IP mass spectrometry count", "setting": "PBXIP1", "value": 0}, {"measurement": "co-IP mass spectrometry count", "setting": "DNAJA2", "value": 0}, {"measurement": "co-IP mass spectrometry count", "setting": "RPL22", "value": 0}, {"measurement": "co-IP mass spectrometry count", "setting": "RPL5", "value": 0}, {"measurement": "co-IP mass spectrometry count", "setting": "MTCH2", "value": 0}, {"measurement": "co-IP mass spectrometry count", "setting": "TXN", "value": 0}, {"measurement": "co-IP mass spectrometry count", "setting": "RPS2", "value": 12}, {"measurement": "co-IP mass spectrometry count", "setting": "HSPB1", "value": 0}, {"measurement": "co-IP mass spectrometry count", "setting": "PSMA7", "value": 0}, {"measurement": "co-IP mass spectrometry count", "setting": "CDSN", "value": 0}, {"measurement": "co-IP mass spectrometry count", "setting": "RPL27A", "value": 0}, {"measurement": "co-IP mass spectrometry count", "setting": "ZRANB2 (human)", "value": 0}, {"measurement": "co-IP mass spectrometry count", "setting": "KTN1 (human)", "value": 0}, {"measurement": "co-IP mass spectrometry count", "setting": "UBTF (human)", "value": 0}, {"measurement": "co-IP mass spectrometry count", "setting": "PSMA5 (human)", "value": 0}, {"measurement": "co-IP mass spectrometry count", "setting": "HDGFL2 (human)", "value": 0}, {"measurement": "co-IP mass spectrometry count", "setting": "PSMC2 (human)", "value": 0}, {"measurement": "co-IP mass spectrometry count", "setting": "PDIA4 (human)", "value": 0}, {"measurement": "co-IP mass spectrometry count", "setting": "FBXO6 (human)", "value": 0}, {"measurement": "co-IP mass spectrometry count", "setting": "ACSL3 (human)", "value": 0}, {"measurement": "co-IP mass spectrometry count", "setting": "NTPCR (human)", "value": 0}, {"measurement": "co-IP mass spectrometry count", "setting": "ERP29 (human)", "value": 0}, {"measurement": "co-IP mass spectrometry count", "setting": "PXN (human)", "value": 0}, {"measurement": "co-IP mass spectrometry count", "setting": "PGAM5 (human)", "value": 0}]}]}
